Measurements reported in paper PMC6533203.

B1: MT145K SOSIP.664 Env trimer (also MT145K Env pseudovirus): MT145K N160A (protein)
parent chain: MKVMGMKYYWWRNSCRSISIKLILIGWIASCFGEENWWVTVYYGVPVWREAKTTLFCASDAKSYSTEAHNIWATQACVPTDPTPQEVLLPNVTEEFNMWENYMVDQMQEDIISLWEQSLKPCVKLTPLCVTLTCNNPTNTSCTNSTDDRLGDMRNCSFNVTTELRDKKRQVYSLFYVEDITAIGNNSTYRLINCNTTAITQACPKTSFEPIPIHYCAPAGFALLKCNDIDYKGNETCKNVSTVHCTHGIKPVATTQLILNGSTADNQTVARIDPSENLAIIQLKDPVKITCRRPGNNTRGQIQIGPAMTFYNIENVVGDTRKAYCEINGTQWAKALNETKEVLRNILRKNISFMVPSGGDPEVTNHHFNCGGEFFYCNTSEIINITKINKTENMTIIPCRIRQIVNSWMRVGKGIFAPPIRGNITCTSNITGMLLEIHKNREDQGEDQDQNNTYVCLTGGNMKDIWRSELYKYKIVEIQPLGVAPTKSRRYAVEKQHHREKRALGLGALFLGFLGAAGSTMGAASVVLTVQARQLLTGIVQQQNNLLRAIEAQQHLLQLSVWGIKQLQARVLAVERYLRDQQLLGLWGCTGKTICPTAVRWNKTWGNISDYQVIWNNYTWQQWDREVNNYTGLIYTLLEEANTQQEKNEKELLELDSWANLWSWFDITNWLWYIKMFLIVVGGIIGLRICFAIGSLINRVRKGYSPLSLQTLIPANQGPDGLGETEKGGGENVRGRSIRLVSGFLPLVWEDLRNLLSFLYHQLRDCASLIWRLLEILGQYSLRGVQQIGTLLHQLRGTLQYWTTEIKNSAISLLDTTAIAVGEGTDRILEAITRLGRGILHIPRRIRQGLERALL

Experiments:
[1] = molecular target: MT145K SOSIP.664 trimer (SIVcpzPtt (chimpanzee SIV), isolate MT145); test: cryo-EM structure; unliganded MT145K trimer, global resolution ~4.1 Å
[2] = molecular target: CH01 inferred germline-reverted (iGL) antibody; test: BLI (Octet); settings: parent: est. 0.12; read off a plot
CAP256 UCA = test: BLI (Octet); settings: parent: est. 0.19; read off a plot
[3] = pseudovirus neutralization, TZM-bl cells, ID50; settings: glycan lost; control: MT145K virus

Molecule	response [2] [nm]	other results
MT145K SOSIP.664 trimer (complex)	–	stoichiometry N [1]: 3
MT145K SOSIP.664 trimer K171E	0.015	–
MT145K SOSIP.664 trimer N160K	0.04	response (CAP256 UCA): 0.015 nm
MT145K SOSIP.664 trimer R166S	0.1	–
B1	–	other: neutralisation sensitivity [3]: decreases
